According to patent publication US20220275038A1 (TOKYO MEDICAL UNIVERSITY, published 2022):
Each block holds one molecule with its values, some of them ahead of it.

Tests used:
[1] = target: CLSP(1-61)-MycHis (N-terminal region of CLSP, amino acid 1-61, C-terminally tagged with MycHis) (human) (UniProt Q9NZT1); assay: cell-based or functional assay
[2] = target: CLSPCOL (hybrid polypeptide of CLSP(1-61), MycHisG and the collagen-homologous region of adiponectin) (human); assay: cell-based or functional assay
[3] = target: human CLSP-MycHis (calmodulin-like skin protein, C-terminally tagged with MycHis) (human) (UniProt Q9NZT1); assay: cell-based or functional assay
[4] = target: T1, recombinant human ApoE4 (PeproTech, cat. no. 350-04) (human, UniProt P02649 19-317); assay: plate coated with ApoE4, rising CLSP-HiBiT, chemiluminescence (Nano-Glo HiBiT), Scatchard analysis; ApoE4 on the plate
T1 construct: also called apolipoprotein E4
T1 sequence (P02649 19-317 C130R limits assumed): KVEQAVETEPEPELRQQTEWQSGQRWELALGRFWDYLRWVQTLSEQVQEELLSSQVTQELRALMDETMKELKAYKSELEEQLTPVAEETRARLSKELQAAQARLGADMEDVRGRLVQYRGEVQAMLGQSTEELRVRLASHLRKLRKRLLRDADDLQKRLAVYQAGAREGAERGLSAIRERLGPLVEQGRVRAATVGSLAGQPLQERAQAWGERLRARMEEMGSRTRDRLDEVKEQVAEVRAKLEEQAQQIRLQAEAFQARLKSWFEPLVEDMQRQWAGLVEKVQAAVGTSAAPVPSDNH
Method: (§1) The dissociation constants (Kd) for the binding between CLSP and adiponectin, and between CLSP and ApoE4 were then measured (FIGS. 8b and c). For this purpose, adiponectin or ApoE4 protein was conjugated to the 96-well plates. Various concentrations of recombinant CLSP C-terminally tagged with HiBiT, a chemiluminescence producing tag, were added to the plates for simultaneous incubation. After washing, the amount of CLSP-HiBiT binding to adiponectin or ApoE4 on the wells was measured. The dissociation constant between adiponectin and CLSP or between ApoE4 and CLSP was measured to be 8.8 or 7.8 pM respectively by Scatchard analysis (FIG. 8c).
(§2) The dissociation constant for the binding between ApoE4 (or adiponectin) and CLSP was measured using Nano-Glo HiBiT Extracellular Detection System (Promega, cat. no.: N2420) in accordance with the instruction. For the coating of recombinant ApoE4 or adiponectin, 100 μl of 50 mM carbonate buffer (pH 9.6) containing 20 pM ApoE4 or adiponectin was incubated overnight at 4° C. in the wells of 96-well plates (Fluorescence-use Black-type Plate H, cat. no.: MS-8596KZ, Sumitomo Bakelite Co., Ltd., Tokyo, Japan). The protein-coated plates were washed three times with 200 μl of PBS. Then, 150 μl of PBS containing 1% skim milk (GIBCO) was added to each well. […] Resulting chemiluminescence was measured for each well using Wallac ARVO™ X5 (Perkin Elmer). […]

[5] = target: T2, human adiponectin (BioVendor, cat. no. RD172029100) (human, UniProt Q15848 19-244, limits assumed); assay: plate coated with adiponectin, rising CLSP-HiBiT, chemiluminescence (Nano-Glo HiBiT), Scatchard analysis; adiponectin on the plate
T2 construct: Bought; also called ADN; wild-type adiponectin
T2 sequence: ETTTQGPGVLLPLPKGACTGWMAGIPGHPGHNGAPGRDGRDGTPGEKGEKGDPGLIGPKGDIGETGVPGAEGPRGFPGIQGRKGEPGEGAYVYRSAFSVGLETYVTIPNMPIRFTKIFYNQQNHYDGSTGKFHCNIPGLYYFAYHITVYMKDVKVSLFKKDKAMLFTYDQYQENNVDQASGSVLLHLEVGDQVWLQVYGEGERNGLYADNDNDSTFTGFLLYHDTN
Method: as §1, §2

[6] = target: T1, recombinant human ApoE4 (PeproTech, …); assay: Scatchard analysis; wells coated with 20 pM recombinant ApoE4, stepwise CLSP-HiBiT, HiBiT chemiluminescence [plot ApoE4]
Method: (§3) Dissociation constants were calculated by the Scatchard analysis using Prism7 software.
as §1
as §2, with “Japan).” for “Japan). The protein-coated plates were washed three times with 200 μl of PBS. Then, 150 μl of PBS containing 1% skim milk (GIBCO) was added to each well.”

[7] = target: T2, human adiponectin (BioVendor, cat. no. …); assay: Scatchard analysis; wells coated with 20 pM adiponectin, stepwise CLSP-HiBiT, HiBiT chemiluminescence [plot ADN]
Method: as §3, §1
as §2, with “Japan).” for “Japan). The protein-coated plates were washed three times with 200 μl of PBS. Then, 150 μl of PBS containing 1% skim milk (GIBCO) was added to each well.”

[8] = target: T3, apolipoprotein E4 C-terminally tagged with FLAG (overexpressed in F11 cells, immunoprecipitated with FLAG … (human, UniProt P02649 19-317)); assay: pull-down with immunoprecipitated ApoE4-FLAG, immunoblot (FIG. 15 a, b)
T3 construct: also called ApoE4-FLAG; ApoE4; not shown: C-terminal FLAG tag
T3 sequence (P02649 19-317 C130R limits assumed): as the sequence (P02649 19-317 C130R limits assumed) above
Method: (a, b) <Apolipoprotein E4 binds to the C-terminal region of CLSP> A schematic illustration of deletion mutants of CLSP is shown in (a). Apolipoprotein E4 (ApoE4) and adiponectin (ADN), C-terminally tagged with FLAG, were overexpressed in F11 neurohybrid cells by transfection. At 24 hours after the transfection, the cell lysates of F11 cells were prepared. For immunoprecipitation of ApoE4-FLAG and ADN-FLAG using the FLAG antibody, 300 μg of cell lysates was used. Recombinant CLSP-MycHis (FL-MH) or C-terminally MycHis-tagged CLSP deletion mutants produced in bacteria were purified. These immunoprecipitates and recombinant proteins were then subjected to SDS-PAGE and immunoblot analysis using the myc and FLAG antibodies (inputs). The ApoE4-FLAG and ADN-FLAG immunoprecipitates were mixed with recombinant CLSP-MycHis (FL-MH) or C-terminally MycHis-tagged CLSP deletion mutants and incubated at 4° C. overnight, followed by exhaustive washing. The pulled-down precipitates were then subjected to SDS-PAGE and immunoblotted using the myc and FLAG antibodies. (c) <CLSP binds to the collagen-homologous region of adiponectin> The collagen-homologous region of adiponectin (ADNCol), N-terminally tagged with 6×His and G(HisG), was produced in bacteria. In addition, CLSP-FLAG was overexpressed in F11 neurohybrid cells by transfection. […]

[9] = target: T3, apolipoprotein E4 C-terminally tagged …; assay: pull-down of purified MycHis-tagged CLSP proteins with ApoE4-FLAG immunoprecipitated on M2 agarose beads, WB anti-myc [ApoE4 beads]

Molecule: calreticulin
inhibition of the cell death-suppressing activity of CLSP1-61 (cell death assay, FIG. 19) [1]: 10 fold amount
inhibition of the cell death-suppressing activity of 100 pM CLSPCOL; concentration at which inhibition began [2]: 1 nM
inhibition of the CLSP-mediated protection of V642I-APP-induced neuronal death; concentration for complete inhibition of 10 nM CLSP [3]: 50 nM

Molecule: recombinant GST-human 14-3-3σ (from UniProt P31947 1-248)
inhibition of the cell death-suppressing activity of CLSP1-61 (cell death assay, FIG. 19) [1]: 10 fold amount
inhibition of the CLSP-mediated protection of V642I-APP-induced neuronal death; concentration at which inhibition of 10 nM CLSP began [3]: 10 nM
inhibition of the CLSP-mediated protection of V642I-APP-induced neuronal death; concentration for complete inhibition of 10 nM CLSP [3]: 20 nM

B1: CLSP-HiBiT (recombinant CLSP C-terminally tagged with HiBiT) (ligand)
chain: MAGELTPEEEAQYKKAFSAVDTDGNGTINAQELGAALKATGKNLSEAQLRKLISEVDSDGDGEISFQEFLTAAKKARAGLEDLQVAFRAFDQDGDGHITVDELRRAMAGLGQPLPQEELDAMIREADVDQDGRVNYEEFARMLAQEVSGWRLFKKIS
notes: HiBiT oligonucleotides were put into pGEX-2T-CLSP at the SmaI-EcoRI site; Made 'in the same way' as CLSP-MycHis (GST fusion, thrombin release); also called GST-CLSP-HiBiT (precursor)
Kd [4]: 7.8 pM
Kd [5]: 8.8 pM
Kd [6]: 8.8 pM
Kd [7]: 7.8 pM

Further lines, results first:

binding result [8]: no binding
B2: CLSP(1-61)-MycHis (N-terminal region of CLSP, amino acid 1-61, C-terminally tagged with MycHis) (ligand)
chain: MAGELTPEEEAQYKKAFSAVDTDGNGTINAQELGAALKATGKNLSEAQLRKLISEVDSDGD
notes: Made in bacteria; not shown: C-terminal MycHis tag

binding result [9]: no binding
B3: CLSP deletion mutant EHR, C-terminally tagged with MycHis (consists of only the endogenous humanin-homogenous region) (peptide)
chain: TGKNLSEAQLRKLISEVDSDGD
notes: also called mutants consisting of only EHR; not shown: C-terminal MycHis tag
